Values quoted from earlier work, collected in patent US6468965B1, “Pharmaceutical composition for oral administration of a mixture of chelating agents” (priority 2002, dated 2002).

Key:
colon 26 carcinoma = details: orally administered; literature report, Nutrition and Cancer 2000
[1] = test system: VEGF165-Mediated Angiogenesis; details: orally administered; literature report, Int. J. Cancer 2001
Porphyromonas gingivalis = details: literature report, J. Biol. Chem. 2000

B1: lactoferrin (protein, UniProt P24627 20-708, looked up)
Lactotransferrin: APRKNVRWCTISQPEWFKCRRWQWRMKKLGAPSITCVRRAFALECIRAIAEKKADAVTLDGGMVFEAGRDPYKLRPVAAEIYGTKESPQTHYYAVAVVKKGSNFQLDQLQGRKSCHTGLGRSAGWIIPMGILRPYLSWTESLEPLQGAVAKFFSASCVPCIDRQAYPNLCQLCKGEGENQCACSSREPYFGYSGAFKCLQDGAGDVAFVKETTVFENLPEKADRDQYELLCLNNSRAPVDAFKECHLAQVPSHAVVARSVDGKEDLIWKLLSKAQEKFGKNKSRSFQLFGSPPGQRDLLFKDSALGFLRIPSKVDSALYLGSRYLTTLKNLRETAEEVKARYTRVVWCAVGPEEQKKCQQWSQQSGQNVTCATASTTDDCIVLVLKGEADALNLDGGYIYTAGKCGLVPVLAENRKSSKHSSLDCVLRPTEGYLAVAVVKKANEGLTWNSLKDKKSCHTAVDRTAGWNIPMGLIVNQTGSCAFDEFFSQSCAPGADPKSRLCALCAGDDQGLDKCVPNSKEKYYGYTGAFRCLAEDVGDVAFVKNDTVWENTNGESTADWAKNLNREDFRLLCLDGTRKPVTEAQSCHLAVAPNHAVVSRSDRAAHVKQVLLHQQALFGKNGKNCPDKFCLFKSETKNLLFNDNTECLAKLGGRPTYEEYLGTEYVTAIANLKKCSTSPLLEACAFLTR
notes: 80 kDa mammalian iron-chelating glycoprotein obtainable from the whey protein of cow's milk
For B1, the “effect on the lung colonization of colon 26 carcinoma” value (colon 26 carcinoma) is given as “significant inhibiting effect”, the effect on angiogenesis [1] is given as “inhibiting angiogenesis” and the “action on growth of the bacteria responsible for gingivitis” value (Porphyromonas gingivalis) is given as “inhibiting action”.
